This note sets out measurements from patent publication US11278600B2, “Human alpha-galactosidase variants” (Codexis, Inc., priority 2014, dated 2022).

Common to all, as to assay type: biochemical
Series [1] can be described thus: HTP-analysis of yeast culture supernatants, no challenge (MUGal hydrolysis). To be noted: activity of the variant/activity of Rd3BB (SEQ ID NO: 13). The gist of the method:
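Activity read as 4-methylumbelliferyl α-D-galactopyranoside hydrolysis: fluorescence (355/448 nm) after sodium carbonate stop, following 30-180 min at 37° C with 2 mM MUGal stock at pH 4.6–4.8. Enzyme source is unchallenged culture supernatant of INVSc1 yeast expressing GLA variants, grown 66-84 h at 30° C.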

Series [2] in a line: HTP-analysis of supernatants pretreated with acid (MUGal hydrolysis). To be noted: activity of the variant/activity of Rd3BB (SEQ ID NO: 13); challenge at pH 3.7. A digest of the protocol: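 MUGal hydrolysis was tracked by fluorescence (Ex 355 nm, Em 448 nm) after a 30-180 min reaction at 37° C. in pH 4.8 McIlvaine/citrate buffer, stopped with 1 M sodium carbonate. Beforehand, yeast (INVSc1) culture supernatants carrying GLA variants were held 1-3 h at 37° C. in acidic McIlvaine buffer, pH 3.3-4.3.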

Series [3] can be described thus: HTP-analysis of supernatants pretreated with base (MUGal hydrolysis). Particulars: activity of the variant/activity of Rd3BB (SEQ ID NO: 13); challenge at pH 9.7. A digest of the protocol:
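Supernatants from INVSc1 yeast expressing GLA variants (SD-Ura, 66-84 h, 30° C) were mixed with McIlvaine buffer pH 7.0-8.2 or 200 mM sodium bicarbonate pH 9.1-9.7 and held 1-18 h at 37° C. Residual activity was then measured on MUGal at pH 4.8/4.3, 37° C, 30-180 min, by fluorescence (Ex 355/Em 448 nm).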

Positions count from the first letter of the chain named.

B1: 602 (protein)
chain: LDNGLARTPTMGWLHWERFMCNLDCQEEPDSCISEKLFEEMAERMVSEGWKDAGYEYLCIDDCWMAPQRDSEGRLQADPQRFPHGIRQLANHVHSKGLKLGIYADVGNKTCAGFPGSFGYYDIDAQTFADWGVDLLKFDGCYCDSLENLADGYKHMSLALNRTGRSIVYSCEWPLYMWPFQKPNYTEIRQYCNHWRNFADIDDSWASIKSILDWTSRNQERIVDVAGPGGWNDPDMLVIGNFGLSWDQQVTQMALWAIMAAPLFMSNDLRHISPQAKALLQDKDVIAINQDPLGKQGYQLRKGDNFEVWERPLSGDAWAVAIINRQEIGGPRSYTIPVASLGKGVACNPACFITQLLPVKRQLGFYNWTSRLKSHINPTGTVLLQLENTMQMSLKDLL
modifications: Synthetic Polypeptide sequence of Variant No. 602 of mature Human GLA
As to B1, in series [1], the “Relative Activity of GLA Variants After No Challenge (NC)” value was “+ (+ = 1.5 to 5 relative activity over Rd3BB (SEQ ID NO: 13))”. Moreover, the “Relative Activity of GLA Variants After Challenge at pH 3.7” value (shortened to “Relative Activity … at pH 3.7”) in series [2] is “+ (+ = 1.5 to 5 relative activity over Rd3BB (SEQ ID NO: 13))”. Besides, in series [3], the “Relative Activity of GLA Variants After Challenge at pH 9.7” value (shortened to “Relative Activity … at pH 9.7”) is recorded as “++ (++ = >5 to 10 relative activity over Rd3BB (SEQ ID NO: 13))”.

B2: 607 (protein)
chain: B1 chain with T8L, E39M
modifications: Synthetic Polypeptide sequence of Variant No. 607 of mature Human GLA
With B2, in series [1], the “Relative Activity of GLA Variants After No Challenge (NC)” value is reported as “+ (+ = 1.5 to 5 relative activity over Rd3BB (SEQ ID NO: 13))”. Moreover, the “Relative Activity … at pH 3.7” value in series [2] is “+ (+ = 1.5 to 5 relative activity over Rd3BB (SEQ ID NO: 13))”. For the same molecule, the “Relative Activity … at pH 9.7” value in series [3] is recorded as “++ (++ = >5 to 10 relative activity over Rd3BB (SEQ ID NO: 13))”.

B3: 528 (protein)
chain: B1 chain with E39M, D130Q
modifications: Synthetic Polypeptide sequence of Variant No. 528 of mature Human GLA
With B3, the “Relative Activity of GLA Variants After No Challenge (NC)” value in series [1] is listed as “+ (+ = 1.5 to 5 relative activity over Rd3BB (SEQ ID NO: 13))”. In addition, in series [2], the “Relative Activity … at pH 3.7” value is “+ (+ = 1.5 to 5 relative activity over Rd3BB (SEQ ID NO: 13))”. Moreover, the “Relative Activity … at pH 9.7” value in series [3] is listed as “++ (++ = >5 to 10 relative activity over Rd3BB (SEQ ID NO: 13))”.

B4: 526 (protein)
chain: B1 chain with E39M, R74H
modifications: Synthetic Polypeptide sequence of Variant No. 526 of mature Human GLA
Take B4: in series [1], the “Relative Activity of GLA Variants After No Challenge (NC)” value was “+ (+ = 1.5 to 5 relative activity over Rd3BB (SEQ ID NO: 13))”. For the same molecule, the “Relative Activity … at pH 3.7” value in series [2] is “+ (+ = 1.5 to 5 relative activity over Rd3BB (SEQ ID NO: 13))”. The “Relative Activity … at pH 9.7” value in series [3] is “++ (++ = >5 to 10 relative activity over Rd3BB (SEQ ID NO: 13))”.

B5: 608 (protein)
chain: B1 chain with T8Q, E39M
modifications: Synthetic Polypeptide sequence of Variant No. 608 of mature Human GLA
With B5, in series [1], the “Relative Activity of GLA Variants After No Challenge (NC)” value is on record as “+ (+ = 1.5 to 5 relative activity over Rd3BB (SEQ ID NO: 13))”. For the same molecule, the “Relative Activity … at pH 3.7” value in series [2] is “+ (+ = 1.5 to 5 relative activity over Rd3BB (SEQ ID NO: 13))”. The “Relative Activity … at pH 9.7” value in series [3] was “+ (+ = 1.5 to 5 relative activity over Rd3BB (SEQ ID NO: 13))”.

B6: 606 (protein)
chain: B1 chain with T10P, E39M, R189L
modifications: Synthetic Polypeptide sequence of Variant No. 606 of mature Human GLA
Consider B6, for which, in series [1], the “Relative Activity of GLA Variants After No Challenge (NC)” value is “+ (+ = 1.5 to 5 relative activity over Rd3BB (SEQ ID NO: 13))”. For the same molecule, in series [2], the “Relative Activity … at pH 3.7” value is “+++ (+++ = >10 relative activity over Rd3BB (SEQ ID NO: 13))”. For the same molecule, in series [3], the “Relative Activity … at pH 9.7” value is “++ (++ = >5 to 10 relative activity over Rd3BB (SEQ ID NO: 13))”.

B7: 605 (protein)
chain: B1 chain with T10P, E39M
modifications: Synthetic Polypeptide sequence of Variant No. 605 of mature Human GLA
Take B7: the “Relative Activity of GLA Variants After No Challenge (NC)” value in series [1] was “+ (+ = 1.5 to 5 relative activity over Rd3BB (SEQ ID NO: 13))”. The “Relative Activity … at pH 3.7” value in series [2] is reported as “+++ (+++ = >10 relative activity over Rd3BB (SEQ ID NO: 13))”. For the same molecule, the “Relative Activity … at pH 9.7” value in series [3] is listed as “++ (++ = >5 to 10 relative activity over Rd3BB (SEQ ID NO: 13))”.

B8: 525 (protein)
chain: B1 chain with E39M, Q76H, W368A
modifications: Synthetic Polypeptide sequence of Variant No. 525 of mature Human GLA
For the molecule B8, the “Relative Activity of GLA Variants After No Challenge (NC)” value in series [1] was “+ (+ = 1.5 to 5 relative activity over Rd3BB (SEQ ID NO: 13))”. Moreover, in series [2], the “Relative Activity … at pH 3.7” value is “++ (++ = >5 to 10 relative activity over Rd3BB (SEQ ID NO: 13))”. Besides, the “Relative Activity … at pH 9.7” value in series [3] is recorded as “++ (++ = >5 to 10 relative activity over Rd3BB (SEQ ID NO: 13))”.

B9: 524 (protein)
chain: B1 chain with E39M, N91V
modifications: Synthetic Polypeptide sequence of Variant No. 524 of mature Human GLA
For the molecule B9, the “Relative Activity of GLA Variants After No Challenge (NC)” value in series [1] is on record as “− (− = <1.5 relative activity to Rd3BB (SEQ ID NO: 13))”. Besides, the “Relative Activity … at pH 3.7” value in series [2] is “+ (+ = 1.5 to 5 relative activity over Rd3BB (SEQ ID NO: 13))”. For the same molecule, the “Relative Activity … at pH 9.7” value in series [3] is “+ (+ = 1.5 to 5 relative activity over Rd3BB (SEQ ID NO: 13))”.

B10: 529 (protein)
chain: B1 chain with E39M, K182A
modifications: Synthetic Polypeptide sequence of Variant No. 529 of mature Human GLA
Turning to B10, in series [1], the “Relative Activity of GLA Variants After No Challenge (NC)” value was “+ (+ = 1.5 to 5 relative activity over Rd3BB (SEQ ID NO: 13))”. In addition, the “Relative Activity … at pH 3.7” value in series [2] was “+ (+ = 1.5 to 5 relative activity over Rd3BB (SEQ ID NO: 13))”. Besides, in series [3], the “Relative Activity … at pH 9.7” value is on record as “++ (++ = >5 to 10 relative activity over Rd3BB (SEQ ID NO: 13))”.

B11: 527 (protein)
chain: B1 chain with E39M, H92E
modifications: Synthetic Polypeptide sequence of Variant No. 527 of mature Human GLA
Regarding B11, the “Relative Activity of GLA Variants After No Challenge (NC)” value in series [1] is “+ (+ = 1.5 to 5 relative activity over Rd3BB (SEQ ID NO: 13))”. Also, the “Relative Activity … at pH 3.7” value in series [2] is on record as “+ (+ = 1.5 to 5 relative activity over Rd3BB (SEQ ID NO: 13))”. In addition, the “Relative Activity … at pH 9.7” value in series [3] is reported as “++ (++ = >5 to 10 relative activity over Rd3BB (SEQ ID NO: 13))”.

B12: 523 (protein)
chain: B1 chain with E39M, N91M
modifications: Synthetic Polypeptide sequence of Variant No. 523 of mature Human GLA
In the case of B12, the “Relative Activity of GLA Variants After No Challenge (NC)” value in series [1] is on record as “+ (+ = 1.5 to 5 relative activity over Rd3BB (SEQ ID NO: 13))”. Besides, the “Relative Activity … at pH 3.7” value in series [2] is on record as “+ (+ = 1.5 to 5 relative activity over Rd3BB (SEQ ID NO: 13))”. Moreover, in series [3], the “Relative Activity … at pH 9.7” value was “+ (+ = 1.5 to 5 relative activity over Rd3BB (SEQ ID NO: 13))”.

B13: 604 (protein)
chain: B1 chain with E39V
modifications: Synthetic Polypeptide sequence of Variant No. 604 of mature Human GLA
With B13, in series [1], the “Relative Activity of GLA Variants After No Challenge (NC)” value is “+ (+ = 1.5 to 5 relative activity over Rd3BB (SEQ ID NO: 13))”. The “Relative Activity … at pH 3.7” value in series [2] is “+ (+ = 1.5 to 5 relative activity over Rd3BB (SEQ ID NO: 13))”. Further, the “Relative Activity … at pH 9.7” value in series [3] is “++ (++ = >5 to 10 relative activity over Rd3BB (SEQ ID NO: 13))”.

B14: 603 (protein)
chain: B1 chain with E39R
modifications: Synthetic Polypeptide sequence of Variant No. 603 of mature Human GLA
With B14, the “Relative Activity of GLA Variants After No Challenge (NC)” value in series [1] is recorded as “+ (+ = 1.5 to 5 relative activity over Rd3BB (SEQ ID NO: 13))”. In addition, the “Relative Activity … at pH 3.7” value in series [2] is given as “+ (+ = 1.5 to 5 relative activity over Rd3BB (SEQ ID NO: 13))”. Besides, the “Relative Activity … at pH 9.7” value in series [3] is “+ (+ = 1.5 to 5 relative activity over Rd3BB (SEQ ID NO: 13))”.

B15: 522 (protein)
chain: B1 chain with E39M, E56K
modifications: Synthetic Polypeptide sequence of Variant No. 522 of mature Human GLA
Take B15: in series [1], the “Relative Activity of GLA Variants After No Challenge (NC)” value was “+ (+ = 1.5 to 5 relative activity over Rd3BB (SEQ ID NO: 13))”. Moreover, in series [2], the “Relative Activity … at pH 3.7” value was “+++ (+++ = >10 relative activity over Rd3BB (SEQ ID NO: 13))”. In addition, the “Relative Activity … at pH 9.7” value in series [3] is “++ (++ = >5 to 10 relative activity over Rd3BB (SEQ ID NO: 13))”.
